This series deals with Bevacizumab (Avastin; anti-VEGF humanized monoclonal antibody) (Homo sapiens (humanized antibody)?). As to conditions: quartz crystal microbalance (AFFINIX Q8), velocity analysis; Bevacizumab immobilized on sensor; phosphate buffer (DPBS); aptamer 1.48-2.91 uM; sequence ….

What is called Kd is the concentration at which binding is half-saturated. A lower Kd goes with a tighter complex. For “CCGTGTGGTGGGGGTTGGGGGTTGTCGTTCGCCG [Bevacizumab DNA aptamer SEQ ID NO: 1]”, the Kd is 9.1 µM.

The values above are taken from patent US20190284560.
